Results reported in PMC8500918.

Molecular target: Cadherin-11 extracellular domain 1 (EC1), wild type
Assay: NMR

Cadherin-11 extracellular domain 1 (EC1), wild type, sequence (P55288 1-98): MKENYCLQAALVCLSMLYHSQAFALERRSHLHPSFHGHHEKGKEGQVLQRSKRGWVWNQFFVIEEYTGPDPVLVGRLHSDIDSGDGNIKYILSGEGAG

- stoichiometry N: 2
Substance: Cadherin-11 extracellular domain 1 (EC1), wild type (domain or fragment)
